From paper PMC12003778

What was measured:
[1] = molecular target: human GLT25D1/COLGALT1 (wild type) (human) (UniProt Q8NBJ5); assay: SEC-SAXS
[2] = molecular target: human GLT25D1/COLGALT1 (wild type) (human) (UniProt Q8NBJ5); assay: mass photometry
[3] = molecular target: human GLT25D1/COLGALT1 (wild type) (human) (UniProt Q8NBJ5); assay: SEC-MALS

Measured: stoichiometry N

human GLT25D1/COLGALT1 (wild type) (from UniProt Q8NBJ5 30-618) (enzyme)
2: [1] | [2] | [3]
